Source: the supplement of paper PMC10899765

Assays:
Conditions in all cases: 20 nM; 72 h
MCF10A [1] = test: 5+ nucleoli phenotype percent effect (relative to siNT 0% and siKIF11 100%); higher = more cells with five or more nucleoli
Procedure: (§1)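 After 72 h, cells were fixed and stained with Hoechst and anti-fibrillarin, and nucleoli per nucleus were counted with CellProfiler. Values are plate-adjusted percent effect for the one-nucleolus and 5+ nucleoli phenotypes, normalised to siNT (0%) and to the positive controls siNOL11 or siKIF11 (100%), as the mean of biological triplicates. Percent viability is the nuclei count relative to siNT.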

MCF10A [2] = test: one-nucleolus phenotype percent effect (relative to siNT 0% and siNOL11 100%); higher = more cells with one nucleolus (ribosome biogenesis inhibition)
Procedure: as §1

MCF10A [3] = test: percent viability (nuclei count relative to siNT); higher = more viable cells
Procedure: as §1

Sequence	5+ nucleoli phenotype percent effect (MCF10A [1])	one-nucleolus phenotype percent effect (MCF10A [2])	percent viability (MCF10A [3])
AGUGGGAGGACAGGAGGCAGGU [hsa-miR-6778-5p]	-9.05%	-2.52%	26.7%
AGUGGGAGGCCAGGGCACGGCA [hsa-miR-1233-1-5p]	-38.8%	24.3%	26.5%
AGUGGGGAACCCUUCCAUGAGG [hsa-miR-491-5p]	-46.6%	47.1%	10.1%
AGUGGGGUGGGACCCAGCUGUU [hsa-miR-6742-5p]	-35.4%	43.2%	21.8%
AGUGGUUCUUAACAGUUCAACAGUU [hsa-miR-203a-5p]	60.5%	-32.6%	150%
AGUUAAUGAAUCCUGGAAAGU [hsa-miR-569]	-15.9%	10.3%	90.6%
AGUUAGGAUUAGGUCGUGGAA [hsa-miR-1258]	-19.1%	6.84%	37.3%
AGUUCUUCAGUGGCAAGCUUUA [hsa-miR-22-5p]	24%	3.93%	75.4%
AGUUGCCAGGGCUGCCUUUGGU [hsa-miR-6501-5p]	-26.4%	5.87%	47.2%
AGUUGCCUUUUUGUUCCCAUGC [hsa-miR-4423-5p]	-0.303%	-22.1%	44.9%
AGUUUGGGAUGGAGAGAGGAGA [hsa-miR-6740-5p]	24.1%	-20.1%	83.1%
AGUUUUGCAGGUUUGCAUUUCA [hsa-miR-19b-2-5p]	-10.8%	21.2%	96.7%
AGUUUUGCAUAGUUGCACUACA [hsa-miR-19a-5p]	35.3%	-20%	124%
AUAAAGCUAGAUAACCGAAAGU [hsa-miR-9-3p]	-46.1%	48.4%	44.1%
AUAACAUUGUAAAGCGCUUCUUUCG [hsa-miR-3143]	49%	-38.3%	68.7%
AUAAGACGAACAAAAGGUUUGU [hsa-miR-208b]	3.95%	2.18%	63%
AUAAGACGAGCAAAAAGCUUGU [hsa-miR-208a]	14.9%	-6.61%	100%
AUAAUACAACCUGCUAAGUGCU [hsa-miR-374c-5p]	-36.9%	26.4%	45.3%
AUAAUACAUGGUUAACCUCUUU [hsa-miR-655]	-21.2%	4.84%	118%
AUACACAUACACGCAACACACAU [hsa-miR-466]	-1.51%	-17.2%	38.7%

Sequence	5+ nucleoli phenotype percent effect (MCF10A [1])	one-nucleolus phenotype percent effect (MCF10A [2])	percent viability (MCF10A [3])
AUACAUGUCAGAUUGUAUGCC [hsa-miR-4666a-5p]	3.52%	-5.95%	52.7%
AUACCCAUAGCUUAGCUCCCA [hsa-miR-5591-3p]	-19.5%	47%	16.2%
AUACCUCAUCUAGAAUGCUGUA [hsa-miR-4777-3p]	-19.6%	0.874%	51.3%
AUACUGUGAAUUUCACUGUCACA [hsa-miR-4693-5p]	-20.3%	2.95%	53.9%
AUAGCAAUUGCUCUUUUGGAA [hsa-miR-4766-3p]	-28.9%	19.4%	38.1%
AUAGCAGCAUAAGCCUGUCUC [hsa-miR-4524b-5p]	-6.19%	-0.0215%	21%
AUAGCAGCAUGAACCUGUCUCA [hsa-miR-4524a-5p]	-12.6%	21.6%	24.9%
AUAGGACUCAUAUAGUGCCAG [hsa-miR-3117-3p]	33%	-13.2%	35.4%
AUAGGCACCAAAAAGCAACAA [hsa-miR-4423-3p]	-11.3%	0.708%	12.9%
AUAGUCCGAGUAACGUCGGGGC [hsa-miR-6723-5p]	-28.9%	16.5%	54%
AUAGUGGGAAGCUGGCAGAUUC [hsa-miR-4727-3p]	-30.8%	52.3%	16.6%
AUAGUGGUUGUGAAUUUACCUU [hsa-miR-4460]	-22.1%	11.2%	33.9%
AUAUAAUACAACCUGCUAAGUG [hsa-miR-374b-5p]	35.9%	-13.3%	103%
AUAUACAGGGGGAGACUCUCAU [hsa-miR-1185-2-3p]	-11.3%	21.3%	25.8%
AUAUACAGGGGGAGACUCUUAU [hsa-miR-1185-1-3p]	-12.6%	9.76%	20.3%
AUAUACCUGUUCGGUCUCUUUA [hsa-miR-3144-3p]	-12.6%	-10.5%	30%
AUAUGCCUGGCUAGCUCCUC [hsa-miR-4633-5p]	-31.2%	27.8%	31.4%
AUAUGGGUUUACUAGUUGGU [hsa-miR-3115]	-8.18%	27.9%	25%
AUAUGUAUAUGUGACUGCUACU [hsa-miR-3924]	-20.9%	-20%	32%
AUAUUACCAUUAGCUCAUCUUU [hsa-miR-556-3p]	-10.1%	-7.76%	46.5%

Sequence	5+ nucleoli phenotype percent effect (MCF10A [1])	one-nucleolus phenotype percent effect (MCF10A [2])	percent viability (MCF10A [3])
AUAUUAUUAGCCACUUCUGGAU [hsa-miR-4795-3p]	-25.8%	3.49%	27.9%
AUCAAAUAAGGACUAGUCUGCA [hsa-miR-3671]	14.8%	-10.1%	74.3%
AUCAACAGACAUUAAUUGGGCGC [hsa-miR-421]	-13.6%	23.1%	61.3%
AUCAAGGAUCUUAAACUUUGCC [hsa-miR-561-5p]	-9.66%	5.64%	38.8%
AUCACACAAAGGCAACUUUUGU [hsa-miR-377-3p]	-2.87%	-9.96%	129%
AUCACAUUGCCAGGGAUUACC [hsa-miR-23b-3p]	-9.04%	0.34%	103%
AUCACAUUGCCAGGGAUUUCC [hsa-miR-23a-3p]	-6.74%	-9.26%	126%
AUCACAUUGCCAGUGAUUACCC [hsa-miR-23c]	-6.12%	2.08%	93.5%
AUCAGGGCUUGUGGAAUGGGAAG [hsa-miR-3127-5p]	-23.4%	49.5%	18.4%
AUCAUACAAGGACAAUUUCUUU [hsa-miR-539-3p]	-9.08%	-9.28%	39.4%
AUCAUAGAGGAAAAUCCACGU [hsa-miR-376a-3p]	51.3%	-19.3%	52.2%
AUCAUAGAGGAAAAUCCAUGUU [hsa-miR-376b-3p]	52.2%	-20.4%	144%
AUCAUAUGAACCAAACUCUAAU [hsa-miR-5007-3p]	45.1%	-22.4%	107%
AUCAUGAUGGGCUCCUCGGUGU [hsa-miR-433]	-11.3%	-2.79%	63.2%
AUCAUGUAUGAUACUGCAAACA [hsa-miR-6516-3p]	-35%	25.6%	46.4%
AUCCAGUUCUCUGAGGGGGCU [hsa-miR-5195-3p]	2.52%	13.3%	46.4%
AUCCCACCACUGCCACCAU [hsa-miR-1260b]	18.9%	-10.3%	30.7%
AUCCCACCUCUGCCACCA [hsa-miR-1260a]	24.8%	-2.14%	42.3%
AUCCCCAGAUACAAUGGACAA [hsa-miR-2355-5p]	-14.8%	1.32%	68.5%
